{
  "source": "paper PMC2119608",
  "biological_target": "CD3 gamma subunit, transiently expressed in COS cells (human) (UniProt P09693)",
  "sequence (P09693 23-182)": "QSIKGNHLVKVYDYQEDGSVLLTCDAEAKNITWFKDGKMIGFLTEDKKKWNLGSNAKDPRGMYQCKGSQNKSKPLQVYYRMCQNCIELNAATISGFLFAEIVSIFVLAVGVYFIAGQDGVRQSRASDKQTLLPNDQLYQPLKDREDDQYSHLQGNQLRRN",
  "assay": "co-IP",
  "data": [
    {"sequence": "T cell antigen receptor (TCR) beta chain, transiently expressed in COS cells", "values": [
      {"measurement": "percent bound to CD3 subunits", "result": 60, "unit": "%"}
    ]}
  ]
}
